Assays:
[1] = system: T1, synthetic peptide (SEQ ID NO: 20)
T1 sequence: EPPLSEQAFADLWKK

[2] = system: T2, synthetic peptide (SEQ ID NO: 11)
T2 sequence: EPPLSQEAFADLWKK

Substance: casein kinase II
- incorporation of phosphate into the peptide (200 or 500 µM) [1]: less than 5% of the incorporation into the standard peptides used to assay each kinase
- incorporation of phosphate into the peptide (200 or 500 µM) [2]: less than 5% of the incorporation into the standard peptides used to assay each kinase

Substance: casein kinase I
- incorporation of phosphate into the peptide (200 or 500 µM) [1]: less than 5% of the incorporation into the standard peptides used to assay each kinase
- incorporation of phosphate into the peptide (200 or 500 µM) [2]: less than 5% of the incorporation into the standard peptides used to assay each kinase

Substance: catalytic subunit of cyclic AMP kinase
- incorporation of phosphate into the peptide (200 or 500 µM) [1]: less than 5% of the incorporation into the standard peptides used to assay each kinase
- incorporation of phosphate into the peptide (200 or 500 µM) [2]: less than 5% of the incorporation into the standard peptides used to assay each kinase
